± gives the standard deviation of the averaged measurements.
Test system: Saccharomyces cerevisiae
Experiment: protein stability index of tFT-peptide fusion (C-terminal peptide) (PSI (0-1 scale)); higher = more stable (slower turnover)
Details: genetic background: wild type; temperature: 30 C
Experimental: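 Multiplexed protein stability (MPS) profiling in S. cerevisiae. Random 12-aa peptides (tFT-X12 library) are fused to the C-terminus of a sfGFP-mCherry tandem fluorescent timer, after mCherry and a GGGS linker. Cells are FACS-sorted into 8 mCherry/sfGFP bins and deep-sequenced. The protein stability index (PSI) is the read-weighted bin average, scaled from 0 (unstable) to 1 (stable). Only peptides with >10 reads are reported; cells were grown at 30 °C in SC-His with glucose.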
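Also: PSI is a weighted mean of sequencing reads over stability bins, variants kept only with over 10 reads, mCherry proximal and sfGFP distal, peptide attached via GGGS linker.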

Sequence	protein stability index
ARVLVLMNGVCV	0.592 ± 0.032
ASCLSPPSPFPR	0.653 ± 0.013
ASLDTALVHITL	0.622 ± 0.0064
ASLIGHLKATSP	0.672 ± 0.014
ASLLLVFSPPIS	0.703 ± 0.043
ASNEPQRQELGS	0.693 ± 0.018
ASPSAPPRPPTP	0.697 ± 0.013
ASRADSALGITV	0.727 ± 0.055
ASRSGVPGVRVG	0.685 ± 0.027
ASRYPVPLQPHH	0.6982 ± 0.0044
ASSFEGVWCTGC	0.721 ± 0.0093
ASSGGCVPTLPL	0.68 ± 0.0078
ASSLKSTQVSGV	0.72769 ± 0.00011
ASSMLPVCLVTL	0.588 ± 0.056
ASSPSLSSPPTL	0.7106 ± 0.0051
ASSVLLIAQLQS	0.619 ± 0.0054
ATDCHVYRPPDL	0.6941 ± 0.0013
ATHEEGRVRCGV	0.709 ± 0.078
ATIRSSQGFKIY	0.612 ± 0.013
ATIYTAATTYHV	0.71342 ± 0.00066
ATPNRSKNKHDT	0.679 ± 0.0011
ATRSTLHDSMVS	0.714 ± 0.059
ATSPPGLLAQPA	0.663 ± 0.0017
ATTQLPPPGGMC	0.695 ± 0.024
ATYNRPPPPGLD	0.682 ± 0.068
ATYTTQQLPNYH	0.685 ± 0.011

Sequence	protein stability index
AVCLLRLDRSRA	0.665 ± 0.027
AVERGGRGRVVG	0.639 ± 0.04
AVFLGGLLVSRW	0.682 ± 0.24
AVGFVVHNSLKK	0.739 ± 0.017
AVGGGGRLMCGV	0.645 ± 0.053
AVGGGVVGQGWV	0.604 ± 0.012
AVGGWRAGGGGG	0.731 ± 0.04
AVLRVCHVEVVP	0.634 ± 0.031
AVNFESSHPICA	0.58 ± 0.0073
AVPPQLAPPRPL	0.679 ± 0.037
AVPSGLPLMFPR	0.662 ± 0.045
AVSAGQASPGRA	0.681 ± 0.061
AVSLWAIFPLYT	0.611 ± 0.015
AVVVCGGGWWWA	0.746 ± 0.094
AWCLGVGESRPH	0.739 ± 0.035
AWECCFLGRSGV	0.846 ± 0.075
AWEETISVIGVM	0.711 ± 0.048
AWGARWVCVMGG	0.626 ± 0.027
AWGGELGATSGG	0.711 ± 0.0094
AWGPGRGGGGDA	0.677 ± 0.01
AWLCSVFLLSLS	0.533 ± 0.0076
AWVVFGLRFGFD	0.534 ± 0.053
AYFGSCCCLPLG	0.69 ± 0.039
AYFLPPLPTTPP	0.692 ± 0.054
AYKGTPTCKTRR	0.689 ± 0.1
AYPRLRPSPSPH	0.7212 ± 0.0066

Sequence	protein stability index
CAHKRTPRLGPE	0.66 ± 0.077
CAITAPINRSWN	0.702 ± 0.009
CCCVGRGVGSRF	0.703 ± 0.0054
CCDWLFCVGVAG	0.558 ± 0.0079
CCFFPPPGRTRQ	0.676 ± 0.015
CCLSVFSYESLA	0.709 ± 0.016
CCYCLTVCRWFT	0.571 ± 0.038
CDDGLIVNKVDS	0.665 ± 0.0092
CDFASTDSLLGG	0.702 ± 0.013
CDSSSVGYLVVR	0.655 ± 0.014
CEAGAGTGGADL	0.674 ± 0.018
CEFGGEEINQTV	0.6951 ± 0.0015
CEPSLPGRSRRA	0.753 ± 0.056
CESASGAAWLGG	0.723 ± 0.029
CESEAGGGVTLC	0.669 ± 0.025
CFAFRPLLPSSP	0.686 ± 0.0086
CFASLLSFCPLV	0.695 ± 0.065
CFCDDRPSLRRV	0.729 ± 0.019
CFCPWFGRVCLG	0.5142 ± 0.0014
CFGMMVFFHRVI	0.534 ± 0.076
CFLFLTVSSREG	0.534 ± 0.03
CFPSFVTFSSLF	0.7722 ± 0.0041
CFRFPILTSHFY	0.592 ± 0.026
CFTPYNPSPLLS	0.715 ± 0.021
CFWSVIGVQFEV	0.629 ± 0.0095
CFYSFWQVTRFL	0.477 ± 0.062

Sequence	protein stability index
CGEEVGGGVMIW	0.689 ± 0.015
CGKPRIHEGRLM	0.691 ± 0.02
CGLSYSISVNMR	0.627 ± 0.02
CGSGVAVGVLVL	0.6 ± 0.038
CGSNSSLQECGV	0.679 ± 0.11
CGSVERAEKGHI	0.662 ± 0.025
CGVEERRIGGVC	0.725 ± 0.034
CGVHQSRATPMS	0.663 ± 0.032
CGWTATRTCGLV	0.7541 ± 0.0063
CHMSLDGPLLGF	0.728 ± 0.2
CHVRSSILINRT	0.65 ± 0.1
CIITHSQNKLNT	0.724 ± 0.059
CKGIGRGGGVVS	0.607 ± 0.051
CKGSGLGGGVVS	0.583 ± 0.017
CKIDGGIIRTCR	0.676 ± 0.023
CKTYPTKALVVE	0.693 ± 0.0097
CLAAHARFSLRL	0.65 ± 0.05
CLALLSYLGFTF	0.675 ± 0.069
CLCYAWVPAPLF	0.604 ± 0.018
CLGPGTFLLFFV	0.5952 ± 0.0026
CLGPGVLVGCVC	0.402 ± 0.16
CLLLGDALGYYG	0.683 ± 0.033
CLLSWVLDCFLV	0.548 ± 0.024
CLPHSLPHPPPH	0.6791 ± 0.0056
CLRLAFPSGPCI	0.683 ± 0.098
CLSCLFFRVFAD	0.573 ± 0.08

Sequence	protein stability index
CLSLPFSLFPLM	0.619 ± 0.068
CLYVGSRPPRSA	0.71 ± 0.031
CLYVTFFLPCIL	0.491 ± 0.016
CMFSSTSSTNVN	0.731 ± 0.085
CMGSDKAGKSVA	0.681 ± 0.016
CNLVCFRRFLYR	0.62 ± 0.041
CNTPGLSHELLH	0.786 ± 0.11
CPAAWSLPCRPP	0.6599 ± 0.0018
CPCASEYIAFTL	0.701 ± 0.018
CPDSFARSAVLS	0.673 ± 0.074
CPGLYVRAYGHC	0.613 ± 0.049
CPLAAGSFSSLS	0.6608 ± 0.0009
CPNFYPARNSRL	0.696 ± 0.2
CPPPIPPSRPPS	0.666 ± 0.067
CPPSPFPPPLPR	0.767 ± 0.094
CPTHPLFLDSYV	0.676 ± 0.026
CQGHFAAKTEKI	0.684 ± 0.019
CQQCLATYNKGP	0.708 ± 0.16
CQQIKKNKKIKN	0.661 ± 0.0026
CQRDYLFKSRLP	0.639 ± 0.069
CQSRLPSTKNRH	0.695 ± 0.015
CQWGGWGVGVGG	0.761 ± 0.061
CQYSRRRRQELH	0.65 ± 0.075
CRGEGGRTVING	0.634 ± 0.063
CRGGWKCGQEKG	0.635 ± 0.014
CRGLRRSLGSIL	0.682 ± 0.063

Sequence	protein stability index
CRGYRFLSEMKV	0.645 ± 0.07
CRLANEIMYDKN	0.685 ± 0.014
CRLPLSTIRARP	0.724 ± 0.047
CRPFGVSCHIRV	0.739 ± 0.17
CRRSSRIKHILL	0.603 ± 0.029
CRTIILCLLTNL	0.498 ± 0.024
CRVAFGFMSRFV	0.729 ± 0.067
CRWLAKRVKDSS	0.629 ± 0.04
CSAAVVQSSGSE	0.67 ± 0.034
CSCGRGRLARRL	0.686 ± 0.13
CSCPEDGILCIF	0.62 ± 0.076
CSDRRVAGGRGG	0.676 ± 0.073
CSGLFLAPSYTQ	0.713 ± 0.0096
CSLEREKLQEQQ	0.689 ± 0.022
CSLTLPFFFGSL	0.6771 ± 0.0026
CSSARVLPLPVP	0.661 ± 0.041
CSSTCRCCAAFD	0.641 ± 0.0086
CSVDSRLSMLVL	0.605 ± 0.044
CTLMPPQSRRPP	0.604 ± 0.057
CTLVSREHFGFL	0.685 ± 0.041
CTRTREDPKIGI	0.714 ± 0.024
CTSCDQRLQRWG	0.728 ± 0.033
CTYHLPFYNVLF	0.849 ± 0.19
CVATTHASHTSP	0.694 ± 0.033
CVCAIVDGGTFG	0.723 ± 0.07

Reference: the supplement of paper PMC10724198
